In publication PMC10786891, “Massively parallel profiling of RNA-targeting CRISPR-Cas13d”:

T1: EsCas13d, nuclease-dead (Eubacterium siraeum, UniProt B0MS50, R295A;H300A;R849A;H854A)
T1 sequence: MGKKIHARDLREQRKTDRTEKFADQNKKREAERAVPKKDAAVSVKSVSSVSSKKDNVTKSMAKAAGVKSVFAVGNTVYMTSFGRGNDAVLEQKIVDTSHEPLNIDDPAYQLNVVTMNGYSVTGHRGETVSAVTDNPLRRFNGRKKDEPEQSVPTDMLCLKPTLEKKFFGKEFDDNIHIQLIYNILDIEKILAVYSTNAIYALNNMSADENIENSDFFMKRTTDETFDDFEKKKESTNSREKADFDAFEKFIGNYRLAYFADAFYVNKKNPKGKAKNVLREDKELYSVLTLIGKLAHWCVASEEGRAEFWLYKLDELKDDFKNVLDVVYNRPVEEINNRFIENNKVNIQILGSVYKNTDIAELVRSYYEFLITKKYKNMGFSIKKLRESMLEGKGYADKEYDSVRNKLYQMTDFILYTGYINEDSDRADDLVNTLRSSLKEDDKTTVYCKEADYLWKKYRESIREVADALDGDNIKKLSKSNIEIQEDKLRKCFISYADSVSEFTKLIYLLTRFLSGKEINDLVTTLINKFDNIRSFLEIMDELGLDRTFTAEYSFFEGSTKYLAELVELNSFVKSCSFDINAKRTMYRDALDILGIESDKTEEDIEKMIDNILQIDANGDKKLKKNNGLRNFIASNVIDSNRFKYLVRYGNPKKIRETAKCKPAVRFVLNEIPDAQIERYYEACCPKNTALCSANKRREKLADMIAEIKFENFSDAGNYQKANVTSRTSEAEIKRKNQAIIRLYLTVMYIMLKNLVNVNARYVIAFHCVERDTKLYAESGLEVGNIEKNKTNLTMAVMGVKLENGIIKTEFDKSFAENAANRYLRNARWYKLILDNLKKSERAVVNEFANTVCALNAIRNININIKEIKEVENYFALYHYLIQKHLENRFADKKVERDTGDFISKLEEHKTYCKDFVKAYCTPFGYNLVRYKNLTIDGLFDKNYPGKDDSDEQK


Target: T1, EsCas13d, nuclease-dead
Assay: crRNA (strand 1, pre-loaded); Mg2+; 40 mM Tris-HCl pH 7.5, 150 mM NaCl, 6 mM MgCl2, 1 mM DTT, 0.1% Tween-20, 0.2 mg/ml BSA; 25 C; 10 min per concentration, then washed
Conditions: tags: His6-TwinStrep-SUMO cleaved; N-terminal SNAP kept (SNAP-Surface 488); label: 3' end held by stalled T7 RNA polymerase

Binder | Kd
target 3 insC 3' of 11,insG 3' of 2 (mixed) RNA 1: CACCCGUGCAAAAUUGCAGGGGUCUAAAACGACCUGAAUAUUUCAGAUCAAA RNA 2: GGGAAUGGAUCCACAUCUACGAAUUCGUUUUUGAUCUGAAACUAUUCAGGUGCUGCAGAUCGGAAGAGCACACGU | 54 ± 14 nM
target 3 U2A,A12U (mixed) RNA 1: CACCCGUGCAAAAUUGCAGGGGUCUAAAACGACCUGAAUAUUUCAGAUCAAA RNA 2: GGGAAUGGAUCCACAUCUACGAAUUCGUUUUUGAUCUGAUAUAUUCAGGACUGCAGAUCGGAAGAGCACACGU | 79 ± 17 nM
target 3 U2A,U22C (mixed) RNA 1: CACCCGUGCAAAAUUGCAGGGGUCUAAAACGACCUGAAUAUUUCAGAUCAAA RNA 2: GGGAAUGGAUCCACAUCUACGAAUUCGUUCUUGAUCUGAAAUAUUCAGGACUGCAGAUCGGAAGAGCACACGU | 23.1 ± 3.7 nM
target 3 A13G,U22G (mixed) RNA 1: CACCCGUGCAAAAUUGCAGGGGUCUAAAACGACCUGAAUAUUUCAGAUCAAA RNA 2: GGGAAUGGAUCCACAUCUACGAAUUCGUUGUUGAUCUGGAAUAUUCAGGUCUGCAGAUCGGAAGAGCACACGU | 67 ± 26 nM
target 3 C1G,U8A (mixed) RNA 1: CACCCGUGCAAAAUUGCAGGGGUCUAAAACGACCUGAAUAUUUCAGAUCAAA RNA 2: GGGAAUGGAUCCACAUCUACGAAUUCGUUUUUGAUCUGAAAUAAUCAGGUGUGCAGAUCGGAAGAGCACACGU | 45.5 ± 15.5 nM
target 3 A9G,U22C (mixed) RNA 1: CACCCGUGCAAAAUUGCAGGGGUCUAAAACGACCUGAAUAUUUCAGAUCAAA RNA 2: GGGAAUGGAUCCACAUCUACGAAUUCGUUCUUGAUCUGAAAUGUUCAGGUCUGCAGAUCGGAAGAGCACACGU | 25.9 ± 4 nM
target 3 C1A,U8A (mixed) RNA 1: CACCCGUGCAAAAUUGCAGGGGUCUAAAACGACCUGAAUAUUUCAGAUCAAA RNA 2: GGGAAUGGAUCCACAUCUACGAAUUCGUUUUUGAUCUGAAAUAAUCAGGUAUGCAGAUCGGAAGAGCACACGU | 68 ± 17.5 nM
target 3 insA 3' of 6,insC 3' of 5 (mixed) RNA 1: CACCCGUGCAAAAUUGCAGGGGUCUAAAACGACCUGAAUAUUUCAGAUCAAA RNA 2: GGGAAUGGAUCCACAUCUACGAAUUCGUUUUUGAUCUGAAAUAUUCAACGGUCUGCAGAUCGGAAGAGCACACGU | 7.3 ± 0.55 nM
target 3 insC 3' of 22,insA 3' of 22 (mixed) RNA 1: CACCCGUGCAAAAUUGCAGGGGUCUAAAACGACCUGAAUAUUUCAGAUCAAA RNA 2: GGGAAUGGAUCCACAUCUACGAAUUCGUUUCAUUGAUCUGAAAUAUUCAGGUCUGCAGAUCGGAAGAGCACACGU | 20.2 ± 2.4 nM
target 3 U8A (mixed) RNA 1: CACCCGUGCAAAAUUGCAGGGGUCUAAAACGACCUGAAUAUUUCAGAUCAAA RNA 2: GGGAAUGGAUCCACAUCUACGAAUUCGUUUUUGAUCUGAAAUAAUCAGGUCUGCAGAUCGGAAGAGCACACGU | 58.5 ± 7.5 nM
target 3 G4C,U8A (mixed) RNA 1: CACCCGUGCAAAAUUGCAGGGGUCUAAAACGACCUGAAUAUUUCAGAUCAAA RNA 2: GGGAAUGGAUCCACAUCUACGAAUUCGUUUUUGAUCUGAAAUAAUCACGUCUGCAGAUCGGAAGAGCACACGU | 71.5 ± 10 nM
target 3 C6A,A9G (mixed) RNA 1: CACCCGUGCAAAAUUGCAGGGGUCUAAAACGACCUGAAUAUUUCAGAUCAAA RNA 2: GGGAAUGGAUCCACAUCUACGAAUUCGUUUUUGAUCUGAAAUGUUAAGGUCUGCAGAUCGGAAGAGCACACGU | 59.5 ± 13 nM
target 3 insA 3' of 22,insA 3' of 21 (mixed) RNA 1: CACCCGUGCAAAAUUGCAGGGGUCUAAAACGACCUGAAUAUUUCAGAUCAAA RNA 2: GGGAAUGGAUCCACAUCUACGAAUUCGUUUAUAUGAUCUGAAAUAUUCAGGUCUGCAGAUCGGAAGAGCACACGU | 31.9 ± 4.5 nM
target 3 G4U,A5U (mixed) RNA 1: CACCCGUGCAAAAUUGCAGGGGUCUAAAACGACCUGAAUAUUUCAGAUCAAA RNA 2: GGGAAUGGAUCCACAUCUACGAAUUCGUUUUUGAUCUGAAAUAUUCUUGUCUGCAGAUCGGAAGAGCACACGU | 25.2 ± 3.6 nM
target 3 del4,del8 (mixed) RNA 1: CACCCGUGCAAAAUUGCAGGGGUCUAAAACGACCUGAAUAUUUCAGAUCAAA RNA 2: GGGAAUGGAUCCACAUCUACGAAUUCGUUUUUGAUCUGAAAUAUCAGUCUGCAGAUCGGAAGAGCACACGU | 97 ± 29 nM
target 3 A5U,U8G (mixed) RNA 1: CACCCGUGCAAAAUUGCAGGGGUCUAAAACGACCUGAAUAUUUCAGAUCAAA RNA 2: GGGAAUGGAUCCACAUCUACGAAUUCGUUUUUGAUCUGAAAUAGUCUGGUCUGCAGAUCGGAAGAGCACACGU | 92.5 ± 16.5 nM
target 3 insU 3' of 22,insU 3' of 13 (mixed) RNA 1: CACCCGUGCAAAAUUGCAGGGGUCUAAAACGACCUGAAUAUUUCAGAUCAAA RNA 2: GGGAAUGGAUCCACAUCUACGAAUUCGUUUUUUGAUCUGAUAAUAUUCAGGUCUGCAGAUCGGAAGAGCACACGU | 71 ± 33 nM
target 3 del5,del22 (mixed) RNA 1: CACCCGUGCAAAAUUGCAGGGGUCUAAAACGACCUGAAUAUUUCAGAUCAAA RNA 2: GGGAAUGGAUCCACAUCUACGAAUUCGUUUUGAUCUGAAAUAUUCGGUCUGCAGAUCGGAAGAGCACACGU | 29.3 ± 2.3 nM
target 3 insC 3' of 13,insU 3' of 4 (mixed) RNA 1: CACCCGUGCAAAAUUGCAGGGGUCUAAAACGACCUGAAUAUUUCAGAUCAAA RNA 2: GGGAAUGGAUCCACAUCUACGAAUUCGUUUUUGAUCUGACAAUAUUCAGUGUCUGCAGAUCGGAAGAGCACACGU | 59.5 ± 17.5 nM
target 3 C1U,A5G (mixed) RNA 1: CACCCGUGCAAAAUUGCAGGGGUCUAAAACGACCUGAAUAUUUCAGAUCAAA RNA 2: GGGAAUGGAUCCACAUCUACGAAUUCGUUUUUGAUCUGAAAUAUUCGGGUUUGCAGAUCGGAAGAGCACACGU | 20.6 ± 3.3 nM
target 3 complement block 18-20 (mixed) RNA 1: CACCCGUGCAAAAUUGCAGGGGUCUAAAACGACCUGAAUAUUUCAGAUCAAA RNA 2: GGGAAUGGAUCCACAUCUACGAAUUCGUUUUACUUCUGAAAUAUUCAGGUCUGCAGAUCGGAAGAGCACACGU | 26.1 ± 5.05 nM
target 3 insC 3' of 11,insA 3' of 7 (mixed) RNA 1: CACCCGUGCAAAAUUGCAGGGGUCUAAAACGACCUGAAUAUUUCAGAUCAAA RNA 2: GGGAAUGGAUCCACAUCUACGAAUUCGUUUUUGAUCUGAAACUAUUACAGGUCUGCAGAUCGGAAGAGCACACGU | 65 ± 19 nM
target 3 U21A,U22A (mixed) RNA 1: CACCCGUGCAAAAUUGCAGGGGUCUAAAACGACCUGAAUAUUUCAGAUCAAA RNA 2: GGGAAUGGAUCCACAUCUACGAAUUCGUUAAUGAUCUGAAAUAUUCAGGUCUGCAGAUCGGAAGAGCACACGU | 26.6 ± 3 nM
target 3 insG 3' of 6,insA 3' of 3 (mixed) RNA 1: CACCCGUGCAAAAUUGCAGGGGUCUAAAACGACCUGAAUAUUUCAGAUCAAA RNA 2: GGGAAUGGAUCCACAUCUACGAAUUCGUUUUUGAUCUGAAAUAUUCGAGGAUCUGCAGAUCGGAAGAGCACACGU | 10.4 ± 1.15 nM
target 3 insG 3' of 9,insU 3' of 4 (mixed) RNA 1: CACCCGUGCAAAAUUGCAGGGGUCUAAAACGACCUGAAUAUUUCAGAUCAAA RNA 2: GGGAAUGGAUCCACAUCUACGAAUUCGUUUUUGAUCUGAAAUAGUUCAGUGUCUGCAGAUCGGAAGAGCACACGU | 74.5 ± 19 nM
target 1 C2U,G5A (mixed) RNA 1: CACCCGUGCAAAAAUGCAGGGGUCUAAAACUGAGCGGAUAACCUCUCUAUGG RNA 2: GGGAAUGGAUCCACAUCUACGAAUUCGUACCAUAGAGAGGUUAUCCACUUACCGAGAUCGGAAGAGCACACGU | 49 ± 9 nM
target 1 insA 3' of 13,insG 3' of 2 (mixed) RNA 1: CACCCGUGCAAAAAUGCAGGGGUCUAAAACUGAGCGGAUAACCUCUCUAUGG RNA 2: GGGAAUGGAUCCACAUCUACGAAUUCGUACCAUAGAGAGAGUUAUCCGCUCGACCGAGAUCGGAAGAGCACACGU | 3.54 ± 0.28 nM
target 1 insG 3' of 3,insC 3' of 1 (mixed) RNA 1: CACCCGUGCAAAAAUGCAGGGGUCUAAAACUGAGCGGAUAACCUCUCUAUGG RNA 2: GGGAAUGGAUCCACAUCUACGAAUUCGUACCAUAGAGAGGUUAUCCGCUGCACCCGAGAUCGGAAGAGCACACGU | 11.5 ± 0.9 nM
